Assay results from US20140363423A1 (NATIONAL TAIWAN UNIVERSITY, published 2014).
Values joined by “and” are separate entries in the source; they are usually repeats but may differ in a detail not shown here. Identical values can stand only once.

T1: platelet glycoprotein VI (GPVI) on washed human platelets (human), Q9HCN6
T1 chain: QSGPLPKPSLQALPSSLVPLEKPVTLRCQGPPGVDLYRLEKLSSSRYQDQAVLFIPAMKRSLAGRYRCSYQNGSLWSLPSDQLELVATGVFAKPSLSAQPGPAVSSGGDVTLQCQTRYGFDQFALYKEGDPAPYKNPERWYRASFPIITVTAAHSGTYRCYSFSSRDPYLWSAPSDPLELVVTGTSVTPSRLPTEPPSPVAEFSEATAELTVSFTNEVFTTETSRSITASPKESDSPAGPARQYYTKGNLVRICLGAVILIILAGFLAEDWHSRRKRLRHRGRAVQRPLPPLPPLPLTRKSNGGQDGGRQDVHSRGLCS

T2: platelet glycoprotein VI (GPVI) on washed human platelets (human, UniProt Q9HCN6 21-339)
T2 sequence: T1 chain


How the values were obtained:
[1] = target: platelet glycoprotein VI (GPVI) on washed human platelets (human) (UniProt Q9HCN6); assay: cell-based or functional assay
[2] = target: T1, platelet glycoprotein VI (GPVI) on …; assay: cell-based or functional assay
[3] = target: T2, platelet glycoprotein VI (GPVI) on …; assay: cell-based or functional assay
[4] = target: T2, platelet glycoprotein VI (GPVI) on …; assay: flow cytometry on human platelets; inhibition of 6B12 (anti-GPVI) binding

| Molecule | Inhibition of the collagen-induced aggregation (%) at 100 µg/ml [1] [%] | Inhibition of the collagen-induced aggregation (%) at 100 µg/ml [3] [%] | also measured |
| --- | --- | --- | --- |
| Tro-α6 M117A mutant hexapeptide CKWANV | 52.9 |  |  |
| Tro-α6 W116A mutant hexapeptide CKAMNV | 12.3 |  |  |
| d-form Tro-α6 hexapeptide C(dK)WM(dN)V | 89.4 |  | IC50, inhibition of the collagen-induced aggregation [1]: 6.82 µg/ml and 8.75 µM |
| GFCKWMNVAC (modifications not checked) [decapeptide of trowaglerix α subunit (Troα10, …)] |  |  | IC50, inhibition of the collagen-induced aggregation [2]: 30.4 µM; Inhibition of the collagen-induced aggregation (%) at 100 µg/ml [2]: 93.8%; inhibition on collagen-induced aggregation [2]: 60% |
| CKWMNV [hexapeptide of trowaglerix α subunit (Troα6, CKWMNV)] |  | 44.3 | IC50, inhibition of the collagen-induced aggregation [3]: 83.4 µg/ml and 107 µM |
| NQWLSR [Agk--β6 hexapeptide NQWLSR] |  | 24.6 |  |
| RKWFVA [CVX-α6 (Convulxin) hexapeptide RKWFVA] |  | 28.7 |  |
| EEFECLISRTFDNQWLSAPCSDTYSFVCKFEA [recombinant convulxin β subunit C-terminal (CVX β C-terminal 94-125)] |  |  | binding result [4]: binds |
| RKWVNY [Agg-α6 (Aggretin) hexapeptide RKWVNY] |  | 21.7 |  |
| CSLLKKETGFRKWFVASCIGKIPFVCKFPPQC [recombinant convulxin α subunit C-terminal (CVX α C-terminal 104-135)] |  |  | binding result [4]: binds |
